In patent publication US7141417 (THOMAS JEFFERSON UNIVERSITY, dated 2006):

T1: glutathione S-transferase (GST) fused with full-length (67 kilodalton) Fez1 protein (human, UniProt Q9Y250 1-596)
T1 construct: Order GST then Fez1 follows the usual pGEX layout; also called GST-fused Fez1; GST-fused full-length 67 kDa Fez1; not shown: glutathione-S-transferase (GST) of the pGEX fusion expression vector (Pharmacia)
T1 sequence: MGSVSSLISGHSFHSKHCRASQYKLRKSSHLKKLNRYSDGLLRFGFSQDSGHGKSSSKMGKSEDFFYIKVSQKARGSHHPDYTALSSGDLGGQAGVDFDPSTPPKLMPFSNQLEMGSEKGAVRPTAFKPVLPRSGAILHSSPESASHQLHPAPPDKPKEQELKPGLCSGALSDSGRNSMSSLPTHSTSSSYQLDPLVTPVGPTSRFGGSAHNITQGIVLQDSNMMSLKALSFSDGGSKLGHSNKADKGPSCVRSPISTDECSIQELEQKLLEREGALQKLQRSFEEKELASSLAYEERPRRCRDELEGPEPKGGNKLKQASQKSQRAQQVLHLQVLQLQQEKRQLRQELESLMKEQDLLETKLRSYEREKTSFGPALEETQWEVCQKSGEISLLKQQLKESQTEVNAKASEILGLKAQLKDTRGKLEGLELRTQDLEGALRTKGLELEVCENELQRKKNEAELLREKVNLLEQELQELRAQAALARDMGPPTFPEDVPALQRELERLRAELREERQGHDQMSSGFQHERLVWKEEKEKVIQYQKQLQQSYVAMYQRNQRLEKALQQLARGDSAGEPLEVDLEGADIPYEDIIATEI

B1: EF1-γ(M), ^35S-methionine-labeled in vitro translated deletion mutant of EF1-γ (other)
chain: GERVTLADITVVCTLLWLYKQVLEPSFRQAFPNTNRWFLTCINQPQFRAVLGEVKLCEKMAQFDAKKFAETQPKKDTPRKEKGSREEKQKPQAERKEEKKAAAPAPEEEMDECEQALAAEPKAKDPFAHLPKSTFVLDEFKRKYSNEDT
modifications: ^35S-methionine label ; 35S-labelled methionine residues (radiolabel), written M
B2: ^35S-methionine-labeled in vitro translated full-length 67 kDa Fez1 (other)
chain: T1 sequence
modifications: ^35S-methionine label
notes: also called full-length (67 kDa) Fez1 protein
B3: ^35S-methionine-labeled in vitro translated EF1-α (other, UniProt P68104 1-462, looked up)
chain: MGKEKTHINIVVIGHVDSGKSTTTGHLIYKCGGIDKRTIEKFEKEAAEMGKGSFKYAWVLDKLKAERERGITIDISLWKFETSKYYVTIIDAPGHRDFIKNMITGTSQADCAVLIVAAGVGEFEAGISKNGQTREHALLAYTLGVKQLIVGVNKMDSTEPPYSQKRYEEIVKEVSTYIKKIGYNPDTVAFVPISGWNGDNMLEPSANMPWFKGWKVTRKDGNASGTTLLEALDCILPPTRPTDKPLRLPLQDVYKIGGIGTVPVGRVETGVLKPGMVVTFAPVNVTTEVKSVEMHHEALSEALPGDNVGFNVKNVSVKDVRRGNVAGDSKNDPPMEAAGFTAQVIILNHPGQISAGYAPVLDCHTAHIACKFAELKEKIDRRSGKKLEDGPKFLKSGDAAIVDMVPGKPMCVESFSDYPPLGRFAVRDMRQTVAVGVIKAVDKKAAGAGKVTKSAQKAQKAK
modifications: ^35S-methionine label
B4: EF1-γ(N), ^35S-methionine-labeled in vitro translated deletion mutant of EF1-γ (other)
chain: MAAGTLYTYPENWRAFKALIAAQYSGAQVRVLSAPPHFHFGQTNRTPEFLRKFPAGKVPAFEGDDGFCVFESNAIAYYVSNEELRGSTPEAAAQVVQWVSFADSDIVPPASTWVFPTLGIMHHNKQATENAKEEVRRILGLLDAYLKTRTFLV
modifications: ^35S-methionine label ; 35S-labelled methionine residues (radiolabel), written M
B5: GST fused with EF1-γ(N) (other, human, UniProt P26641 1-153, looked up)
chain: B4 chain
notes: not shown: glutathione S-transferase (GST)

Columns and labels:
[1] = molecular target: T1, glutathione S-transferase (GST) fused …; assay: in vitro binding of ^35S-labeled deletion mutants with GST-fused Fez1
Method: (§1) In vitro Transcription/Translation, GST-Fusion Protein and in vitro Binding Assay In vitro transcription and translation was performed using a commercially-available, rabbit reticulocyte-based system, (TNT™ T7 Quick Coupled Transcription/Translation System, Promega) by labeling with ^35S-methionine, according to supplier's instructions. GST-fusion proteins were isolated using a glutathione-agarose column (Pharmacia). Proteins were incubated in two binding buffers: buffer A (comprising 100 millimolar NaCl, 0.5% NP-40, 0.75 milligrams per milliliter bovine serum albumin (BSA), 20 millimolar Tris-HCl pH 8.0, and 1 millimolar EDTA) and buffer B (comprising 150 millimolar NaCl, 0.1% (v/v) Tween 20, 0.75 milligrams per milliliter BSA, 50 millimolar Tris-HCl pH 8.0, 5 millimolar EDTA, 10% (v/v) glycerol). After the glutathione-agarose beads had been pre-incubated in a 10% (w/v) BSA suspension, the beads were mixed with protein samples and washed 5 times, each wash comprising mixing the beads with 10 volumes of the binding buffer. After the beads had been washed, the bead-containing liquid was centrifuged to recover binding proteins. The samples were boiled for 3 minutes and then the proteins in the samples were separated by SDS-PAGE. The gel was dried and exposed to film for 4–24 hours at –80° C.

[2] = molecular target: T1, glutathione S-transferase (GST) fused …; assay: in vitro binding of ^35S-labeled full-length Fez1 with GST-fused full-length Fez1, buffer B
Method: as §1
The amino acid sequence of Fez1 comprises a leucine-zipper-like region. […]

[3] = molecular target: T1, glutathione S-transferase (GST) fused …; assay: in vitro binding of ^35S-methionine-labeled in vitro translated EFs to GST-fused Fez1, glutathione-agarose beads, SDS-PAGE
Method: as §1

[4] = molecular target: B2; assay: in vitro binding assay (figure legend); by paragraph 373 the labeled partner was Fez1 and EF1-γ(N) was GST-fused
Method: as §1, with “C. […]” for “C.”

Binder: B1
binding result [1]: no binding

Binder: B2
binding result [2]: binds

Binder: B3
binding result [3]: no binding

Binder: B4
binding result [1]: binds

Binder: B5
binding result [4]: binds
